Experimental data taken from the supplement of paper PMC12764529.
± gives the half width of the 95% confidence interval.

Legend:
[1] = folding stability dG unfold from trypsin proteolysis; higher = more stable
Summary of the method: (§1)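 Mini-proteins designed to be under 80 residues and free of cysteine were carried in a PA-tagged cDNA display construct and digested with trypsin and with chymotrypsin. Each protease was applied at 11 threefold-diluted concentrations, alongside a no-protease condition, before sequencing. K50 came from Bayesian fitting of the sequencing counts, and unfolding free energy was obtained by comparing it with a sequence-predicted unfolded-state K50 and a shared folded-state K50, for each protease separately or for both together. Designs were retained only if their AlphaFold2 dimer inter-PAE exceeded 15.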

[2] = folding stability dG unfold from chymotrypsin proteolysis; higher = more stable
Summary of the method: as §1

[3] = folding stability dG unfold (combined trypsin and chymotrypsin); higher = more stable
Summary of the method: as §1

Sequence | folding stability dG unfold [1] | folding stability dG unfold [2] | folding stability dG unfold [3]
SAGGSAGGSKIEIHVQVSPELSPEEALERIRREIEEALPEELKDISLDDIIITVYPSHPDVPLSAGGSAGGS [r12_384_TrMRF] | 1.09 ± 0.047 kcal/mol | -0.0223 ± 0.053 kcal/mol | 0.643 ± 0.099 kcal/mol
SAGGSAGGSAGIRLDSLEEALKYIRKNFPPGRTVEIRVYDGDKPVEITVQVDENGDIKIVSAGGSAGGSAGG [r17_69_TrROS] | 2.91 ± 0.15 kcal/mol | 3.227 ± 0.02 kcal/mol | 3.19 ± 0.092 kcal/mol
SAGGPEELELTLSIDYPDLTPEQAAEEARRLLEGLGFEVKEIPVTVEPGPGKVTVRARVTVLPPEERSAGGS [r16_287_TrMRF] | 0.859 ± 0.12 kcal/mol | 1.21 ± 0.05 kcal/mol | 1.06 ± 0.17 kcal/mol
SAGGEMVEIVVKFKTKEELEAAIRAALPPGATVEVTVEEKDGELYLTITVPKENAERLREALKKALESAGGS [r16_43_TrROS_Hall] | 4.2 ± 0.28 kcal/mol | 4.48 ± 0.13 kcal/mol | 4.57 ± 0.28 kcal/mol
SAGVVVERTVTRTVPKDSATKEKIIEEIKASMPGMKVKEVEVLSETPLPDGSIVVTVKLTIERPPDVLESAG [r5_682_JUSTAS] | 3.23 ± 0.11 kcal/mol | 2.88 ± 0.092 kcal/mol | 2.98 ± 0.11 kcal/mol
SAGGSAGGSMETTREELPPELTVERVTEREPGEGRITVRVKVYRPDGTLLSEEVVERDPEDLESAGGSAGGS [r12_240_JUSTAS] | 0.319 ± 0.053 kcal/mol | 0.166 ± 0.14 kcal/mol | 0.295 ± 0.097 kcal/mol
SAGGSAGGSGMMLKIEIPVEDPGSEEKAKKIAEELAKKLGLSPKEVKIKIKVIPKLPPEEILNSAGGSAGGS [r12_1066_JUSTAS] | 0.471 ± 0.077 kcal/mol | 0.531 ± 0.11 kcal/mol | 0.582 ± 0.22 kcal/mol
SAGGSAGGSAGGSLETRPVLLILKDEEGKPYAVARLEVRELPNGGVEVTVTEIVPAEELSAGGSAGGSAGGS [r4_117_TrMRF] | 0.912 ± 0.035 kcal/mol | 1.5 ± 0.095 kcal/mol | 1.36 ± 0.11 kcal/mol
SAGGSAGGSMETVTVLLNTPGTPVTFTFPVPAGVGEEAVKELVRKALPEVEIEVVEITTTPAASAGGSAGGS [r12_427_JUSTAS] | 0.338 ± 0.073 kcal/mol | 0.585 ± 0.21 kcal/mol | 0.463 ± 0.15 kcal/mol
SAGELAEKLAEELRKLFPNAEVEVEVVEVKEDYVVVKIRLRVVDEETGEEKTVEVELTLVLKPGEILPSAGG [r19_8_TrROS_Hall] | 3.79 ± 0.14 kcal/mol | 4.66 ± 0.44 kcal/mol | 4.29 ± 0.3 kcal/mol
SAGGMMTPVSEETLPDGSKVLVEENPATGERTVTTLNPATGTVTTETLKRVPGENAWTLLSKTTTPAPSAGG [r19_249_JUSTAS] | 2.033 ± 0.018 kcal/mol | 1.83 ± 0.02 kcal/mol | 1.94 ± 0.041 kcal/mol
SAGGSAGGSTITITTVIEKDGELYVIEAKIEVTEVYYDKKTKKKVKVKVKIEIKIEKVPLEDLSAGGSAGGS [r12_809_TrROS_Hall] | 2.96 ± 0.56 kcal/mol | 3.28 ± 0.23 kcal/mol | 3.07 ± 0.45 kcal/mol
SAGDVVEIEITYWVPPDEMTVDEFVDHIMSMLPGVKVKSIEIDEIHPYPDGWYEVTVNYTIEVPPGQEISAG [r5_682_TrROS] | 2.53 ± 0.39 kcal/mol | 2.82 ± 0.12 kcal/mol | 2.81 ± 0.16 kcal/mol
SAGGSAGGSKKKKKPKKKKYIVIKVDMSLEEVKKLISKLLGFEEGEKIEIVKVDPENKYIVIKSAGGSAGGS [r12_815_TrROS_Hall] | 2.01 ± 0.072 kcal/mol | 2.35 ± 0.11 kcal/mol | 2.08 ± 0.27 kcal/mol
SAGGSAGGSAGSMLLSLSIASVETTETTEIDPETGEKRKVTTTTITIPGTGQTITLTETVESAGGSAGGSAG [r3_424_JUSTAS] | 1.83 ± 0.058 kcal/mol | 0.532 ± 0.07 kcal/mol | 1.28 ± 0.065 kcal/mol
SAGGSAGGSMIIRIKTENGEEIEIEAESEEEAKKAAEELKKELEEKGYKIEEVEIYEIPEEELSAGGSAGGS [r12_301_TrROS_Hall] | 1.13 ± 0.076 kcal/mol | 2.32 ± 0.13 kcal/mol | 2.05 ± 0.26 kcal/mol

Sequence | folding stability dG unfold [1] | folding stability dG unfold [2] | folding stability dG unfold [3]
SAGGSAGGSAGKVVLYLPGDGTAWVLKVGDGEAVLEAEPEKVEELLEKIPGTEAVPVPGLSAGGSAGGSAGG [r11_57_TrMRF] | 0.652 ± 0.026 kcal/mol | -0.0929 ± 0.23 kcal/mol | 0.425 ± 0.12 kcal/mol
SAGGSAGMPLVTAPVTRDPNSDVVTLTVYDPRTGETHTYTSPGSVEEAVEAFREATGLPISEVVLESAGGSA [r15_101_JUSTAS] | 1.45 ± 0.078 kcal/mol | 1.44 ± 0.057 kcal/mol | 1.51 ± 0.099 kcal/mol
SAGGSAGGSAGTAEEIAKALEEAGFKVEKLPDGTLKVTVRNPETEETVEITLTLEEIEKLSAGGSAGGSAGG [r11_994_TrROS_Hall] | 2.38 ± 0.084 kcal/mol | 2.22 ± 0.051 kcal/mol | 2.33 ± 0.1 kcal/mol
SAGLKVRIRTKDGREIEIEVSEEEAERLVKELEDAGFTVERVEVEELEPEEEKEELEEEERELKEELEESAG [r5_645_TrROS_Hall] | 3.28 ± 0.27 kcal/mol | 2.91 ± 0.069 kcal/mol | 2.72 ± 0.32 kcal/mol
SAGGSAGGSAKIIVNEDGYLIKITNKNGKEITIEMSEDELKELLKKLGIKKAEIVPLPKEKSAGGSAGGSAG [r3_141_TrROS_Hall] | 0.382 ± 0.075 kcal/mol | 2.34 ± 0.093 kcal/mol | 1.72 ± 0.2 kcal/mol
SAGGMIVLEFPDGKIVFVEPVSEFTTPDGKKVRLVKVIVTDPLTGKSTIIEREVLPGGGVKEKVTPESAGGS [r16_651_JUSTAS] | 1.89 ± 0.042 kcal/mol | 1.32 ± 0.043 kcal/mol | 1.49 ± 0.13 kcal/mol
SAGGSAGGMLSPEVLEDPEKVIEFLKKMIPGLKIVVPPDAPPEVVEAAAKLAEETGIPVEIVVGSAGGSAGG [r6_129_TrMRF] | 1.06 ± 0.026 kcal/mol | -0.539 ± 0.48 kcal/mol | 0.555 ± 0.18 kcal/mol
SAGGSETVRVEVEVELENGYRVRVEMEFDLETKEMTMRVEVEPVLELSPEELEKLKKLLEELGIEVSAGGSA [r2_304_TrROS_Hall] | 2.91 ± 0.27 kcal/mol | 3.43 ± 0.11 kcal/mol | 3.12 ± 0.17 kcal/mol
SAMKAEVYILVYDKNGKLIAKIPIKAEEVLEDPEKFLETVKTVVEEFSGIGVKLKIYFPSTGKEVEIEASAG [r14_972_TrMRF] | 4.2 ± 0.65 kcal/mol | 3.35 ± 0.045 kcal/mol | 3.6 ± 0.23 kcal/mol
SAGGSAGGPLVVGRGTFPDGFTADAELRVPDSSETFYRTIEPGASLDEIPENYEVANITLSPAGSAGGSAGG [r6_758_TrMRF] | -0.289 ± 0.12 kcal/mol | -0.176 ± 0.13 kcal/mol | -0.162 ± 0.13 kcal/mol
SAGGSAGGGKPKVEIEYNGKTYEFDSLEELVAEAKEPVRIRLPNGEEIELSREDLKNLTVRLVPSAGGSAGG [r6_684_TrROS_Hall] | 1.55 ± 0.018 kcal/mol | 2.29 ± 0.056 kcal/mol | 1.99 ± 0.043 kcal/mol
SAGGSSGSIDRVELLSFDPEKGIALVRFPSFGSIQVIPIPPGKNSLKVKVINKNGEPFEFTFSLPLSAGGSA [r2_132_TrMRF] | 2.82 ± 0.082 kcal/mol | 3.1 ± 0.043 kcal/mol | 3 ± 0.07 kcal/mol
SAGGKTIEIEVKVPPGMTEEEVAKKLAEELAKELEKKTGKEIKIEIEKVEKLPNGERKVRIKIEVKPSAGGS [r8_156_TrROS_Hall] | 1.42 ± 0.035 kcal/mol | 1.8 ± 0.18 kcal/mol | 1.74 ± 0.2 kcal/mol
SMKITLEKGNYKIEIYKHPETGEIIAKVYDKNGKLVAVAHIKIEVEPDKDGKKIIKKIEIHVHILKEDPKSA [r9_262_TrMRF] | 2.58 ± 0.22 kcal/mol | 3.77 ± 0.11 kcal/mol | 3.02 ± 0.31 kcal/mol
SMSVSTSTEKLPTDLYITEKEIKIEPVDPTKNVYRVTVKTTIVDKNGNVVKEEEKEEIIPLSELEKRIKSSA [r9_234_JUSTAS] | 1.2 ± 0.085 kcal/mol | 1.61 ± 0.1 kcal/mol | 1.54 ± 0.28 kcal/mol
